Assay results taken from article doi:10.1101/2020.10.23.350348.
pKd: −log10 of the molar value.

Target: transferrin receptor (UniProt P02786)
Assay: SPR

Sequence of transferrin receptor (P02786 whole entry): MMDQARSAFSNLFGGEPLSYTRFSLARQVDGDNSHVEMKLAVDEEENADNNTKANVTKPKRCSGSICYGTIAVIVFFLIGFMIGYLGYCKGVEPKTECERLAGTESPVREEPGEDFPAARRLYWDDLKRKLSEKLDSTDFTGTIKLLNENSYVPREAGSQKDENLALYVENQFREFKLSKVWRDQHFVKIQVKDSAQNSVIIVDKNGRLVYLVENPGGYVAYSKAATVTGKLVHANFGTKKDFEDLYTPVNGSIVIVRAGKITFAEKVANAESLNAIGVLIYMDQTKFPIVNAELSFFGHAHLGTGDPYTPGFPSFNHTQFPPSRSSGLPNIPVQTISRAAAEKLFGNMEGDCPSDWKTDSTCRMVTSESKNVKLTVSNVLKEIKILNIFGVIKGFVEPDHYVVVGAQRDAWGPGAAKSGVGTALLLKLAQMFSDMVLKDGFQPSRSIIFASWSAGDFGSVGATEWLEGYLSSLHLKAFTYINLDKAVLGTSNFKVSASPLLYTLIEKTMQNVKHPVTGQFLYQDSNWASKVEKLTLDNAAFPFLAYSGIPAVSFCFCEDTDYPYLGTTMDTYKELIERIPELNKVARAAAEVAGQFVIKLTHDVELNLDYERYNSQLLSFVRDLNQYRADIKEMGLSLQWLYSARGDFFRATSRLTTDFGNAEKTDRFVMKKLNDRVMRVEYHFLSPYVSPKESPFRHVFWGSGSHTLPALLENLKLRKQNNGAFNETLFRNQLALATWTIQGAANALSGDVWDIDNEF

SARS-CoV-2 spike protein (from UniProt P0DTC2 14-1273) (natural protein)
pKd: 8.53
